Experimental data published in US20210130436A1 (published 2021).
Numbering of substitutions follows the chain as printed. In names and notes the source's numbering stands. Each block holds one binder with its values, some of them ahead of it.

Legend:
[1] = molecular target: T1, CD96 (UniProt P40200 22-585, limits assumed); assay: flow cytometry, Fc fusion at 100 nM, CD96-transfected cells
T1 construct: whole, on cells
T1 sequence (looked up): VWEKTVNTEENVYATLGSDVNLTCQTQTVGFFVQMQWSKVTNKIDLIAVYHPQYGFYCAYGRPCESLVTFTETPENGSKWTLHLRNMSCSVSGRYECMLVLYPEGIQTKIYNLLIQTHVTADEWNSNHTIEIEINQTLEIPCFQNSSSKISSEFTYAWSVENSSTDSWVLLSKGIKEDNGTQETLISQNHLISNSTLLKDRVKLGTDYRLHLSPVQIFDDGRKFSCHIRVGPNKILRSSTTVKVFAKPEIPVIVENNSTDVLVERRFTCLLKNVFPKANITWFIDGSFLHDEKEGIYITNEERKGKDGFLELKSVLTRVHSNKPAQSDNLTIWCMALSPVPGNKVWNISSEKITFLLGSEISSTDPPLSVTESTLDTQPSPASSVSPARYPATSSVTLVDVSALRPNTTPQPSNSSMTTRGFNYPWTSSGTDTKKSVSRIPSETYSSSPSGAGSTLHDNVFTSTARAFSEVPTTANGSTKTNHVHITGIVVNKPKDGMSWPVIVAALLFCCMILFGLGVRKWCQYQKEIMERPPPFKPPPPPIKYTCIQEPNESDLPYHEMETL

[2] = molecular target: T2, CD226 (Homo sapiens (Human), UniProt Q15762 19-336); assay: flow cytometry, Fc fusion at 100 nM, CD226-transfected cells
T2 sequence: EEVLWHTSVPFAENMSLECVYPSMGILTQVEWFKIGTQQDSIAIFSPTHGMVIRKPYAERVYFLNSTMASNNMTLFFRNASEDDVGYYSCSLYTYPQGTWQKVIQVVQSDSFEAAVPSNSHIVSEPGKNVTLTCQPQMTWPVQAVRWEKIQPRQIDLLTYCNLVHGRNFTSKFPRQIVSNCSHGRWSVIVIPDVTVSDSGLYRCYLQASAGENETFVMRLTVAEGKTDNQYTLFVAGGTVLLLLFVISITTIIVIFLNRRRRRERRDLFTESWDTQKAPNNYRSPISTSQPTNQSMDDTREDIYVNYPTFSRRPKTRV

[3] = molecular target: T3, TIGIT (Homo sapiens (Human), UniProt Q495A1 22-244); assay: flow cytometry, Fc fusion at 100 nM, TIGIT-transfected cells
T3 sequence: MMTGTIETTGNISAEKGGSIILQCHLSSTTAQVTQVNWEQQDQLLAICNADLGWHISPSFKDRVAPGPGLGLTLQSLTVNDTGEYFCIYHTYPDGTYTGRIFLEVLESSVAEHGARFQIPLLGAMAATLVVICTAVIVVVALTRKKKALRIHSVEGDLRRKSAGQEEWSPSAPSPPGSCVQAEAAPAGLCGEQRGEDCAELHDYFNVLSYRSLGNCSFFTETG

[4] = molecular target: human CD28 (human, UniProt P10747 19-220); assay: flow cytometry, Jurkat cells (CD28)
[5] = molecular target: T4, human PD-L1 (human, UniProt Q9NZQ7 19-290); assay: flow cytometry, CHO cells stably expressing PD-L1
T4 construct: also called huPD-L1; CD274
T4 sequence (Q9NZQ7 19-290): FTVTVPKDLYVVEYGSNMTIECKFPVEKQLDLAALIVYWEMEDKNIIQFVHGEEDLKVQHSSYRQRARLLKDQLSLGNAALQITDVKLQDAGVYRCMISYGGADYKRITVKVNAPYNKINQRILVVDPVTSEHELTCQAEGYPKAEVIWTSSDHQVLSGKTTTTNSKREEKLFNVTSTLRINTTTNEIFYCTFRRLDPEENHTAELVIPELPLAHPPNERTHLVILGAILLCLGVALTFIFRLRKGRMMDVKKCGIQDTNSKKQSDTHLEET

[6] = molecular target: T5, CD28 on Jurkat/IL2 reporter cells (human, UniProt P10747 19-220); assay: flow cytometry, Jurkat cells (CD28)
T5 construct: whole, on cells; Endogenous CD28 of Jurkat cells; also called Jurkats (CD28)

[7] = molecular target: T6, human PD-L1 on CHO cells (human, UniProt Q9NZQ7 19-290); assay: flow cytometry, CHO cells stably expressing PD-L1
T6 construct: whole, on cells; CHO cells stably expressing PD-L1; also called huPD-L1
T6 sequence (Q9NZQ7 19-290): as above

[8] = molecular target: T7, human PD-L1 (human, UniProt Q9NZQ7 19-290); assay: flow cytometry, CHO cells stably expressing huPD-L1, 33.3 nM Fc fusion, PE anti-human Fc
T7 construct: whole, on cells; CHO cells stably expressing huPD-L1; also called huPD-L1
T7 sequence (Q9NZQ7 19-290): as above

[9] = molecular target: T8, human CTLA-4 (human, UniProt P16410 36-223); assay: flow cytometry, CHO cells stably expressing huCTLA-4, 33.3 nM Fc fusion, PE anti-human Fc
T8 construct: whole, on cells; CHO cells stably expressing huCTLA4; also called huCTLA4
T8 sequence (P16410 36-223): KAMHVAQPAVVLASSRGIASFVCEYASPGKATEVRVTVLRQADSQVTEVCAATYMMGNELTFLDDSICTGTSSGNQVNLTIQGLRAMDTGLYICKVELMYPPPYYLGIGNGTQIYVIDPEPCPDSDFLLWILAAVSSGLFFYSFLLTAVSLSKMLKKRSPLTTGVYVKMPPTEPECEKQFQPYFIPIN

MFI at 100 nM [1]: 1610 MFI | MFI at 100 nM [2]: 1900 MFI | MFI at 100 nM [3]: 1870 MFI
B1: variant CD155 IgV-Fc S52M (Fc fusion, not shown: a dimerising Fc or GST)
chain: WPPPGTGDVVVQAPTQVPGFLGDSVTLPCYLQVPNMEVTHVSQLTWARHGEMGSMAVFHQTQGPSYSESKRLEFVAARLGAELRNASLRMFGLRVEDEGNYTCLFVTFPQGSRSVDIWLRVL

MFI at 100 nM [1]: 1650 MFI | MFI at 100 nM [2]: 2000 MFI | MFI at 100 nM [3]: 1930 MFI
B2: variant CD155 IgV-Fc S52M/Q62Y (Fc fusion, not shown: a dimerising Fc or GST)
chain: B1 chain with Q62Y

MFI at 100 nM [1]: 1820 MFI | MFI at 100 nM [2]: 2020 MFI | MFI at 100 nM [3]: 2290 MFI
B3: variant CD155 IgV-Fc S52Q (Fc fusion, not shown: a dimerising Fc or GST)
chain: B1 chain with M52Q

MFI at 100 nM [1]: 2360 MFI | MFI at 100 nM [2]: 3170 MFI | MFI at 100 nM [3]: 2970 MFI
B4: variant CD155 IgV-Fc S52R/Q62F/L104Q/G111R (Fc fusion, not shown: a dimerising Fc or GST)
chain: B1 chain with M52R, Q62F, L104Q, G111R

MFI at 100 nM [1]: 1630 MFI | MFI at 100 nM [2]: 2250 MFI | MFI at 100 nM [3]: 2670 MFI
B5: variant CD155 IgV-Fc S52M/L104Q (Fc fusion, not shown: a dimerising Fc or GST)
chain: B1 chain with L104Q

MFI at 100 nM [1]: 1580 MFI | MFI at 100 nM [2]: 2390 MFI | MFI at 100 nM [3]: 2290 MFI
B6: variant CD155 IgV-Fc T45Q/S52L/L104E/G111R (Fc fusion, not shown: a dimerising Fc or GST)
chain: B1 chain with T45Q, M52L, L104E, G111R

MFI at 100 nM [1]: 1530 MFI | MFI at 100 nM [2]: 5940 MFI | MFI at 100 nM [3]: 2860 MFI
B7: variant CD155 IgV-Fc T45Q/S52L/V57L/L104E (Fc fusion, not shown: a dimerising Fc or GST)
chain: B1 chain with T45Q, M52L, V57L, L104E

MFI at 100 nM [1]: 1630 MFI | MFI at 100 nM [2]: 1910 MFI | MFI at 100 nM [3]: 1940 MFI
B8: variant CD155 IgV-Fc S52W/L104E (Fc fusion, not shown: a dimerising Fc or GST)
chain: B1 chain with M52W, L104E

MFI at 100 nM [1]: 1710 MFI | MFI at 100 nM [2]: 2040 MFI | MFI at 100 nM [3]: 1990 MFI
B9: variant CD155 IgV-Fc S52W (Fc fusion, not shown: a dimerising Fc or GST)
chain: B1 chain with M52W

MFI at 33.3 nM [4]: 31 MFI
B10: WT CD80 ECD-Fc (Fc fusion, not shown: a dimerising Fc or GST)
chain: VIHVTKEVKEVATLSCGHNVSVEELAQTRIYWQKEKKMVLTMMSGDMNIWPEYKNRTIFDITNNLSIVILALRPSDEGTYECVVLKYEKDAFKREHLAEVTLSVKADFPTPSISDFEIPTSNIRRIICSTSGGFPEPHLSWLENGEELNAINTTVSQDPETELYAVSSKLDFNMTTNHSFMCLIKYGHLRVNQTFNWNTTKQEHFPDN
notes: Wild-type control

MFI at 33.3 nM [4]: 15.6 MFI | MFI at 33.3 nM [5]: 20000 MFI
B11: CD80 IgV-Fc T13R/E35D/M47L/V68M (Fc fusion, not shown: a dimerising Fc or GST)
chain: VIHVTKEVKEVARLSCGHNVSVEELAQTRIYWQKDKKMVLTMMSGDLNIWPEYKNRTIFDITNNLSIMILALRPSDEGTYECVVLKYEKDAFKREHLAEVTLSVKAD

MFI at 33.3 nM [6]: 413 MFI | MFI at 33.3 nM [7]: 5660 MFI
B12: variant CD80 IgV-Fc E35D/M47V/N48K/L85M (Fc fusion, not shown: a dimerising Fc or GST)
chain: B11 chain with R13T, L47V, N48K, M68V, L85M

MFI at 33.3 nM [8]: 29300 MFI | MFI at 33.3 nM [9]: 17300 MFI
B13: variant CD80 IgV-Fc (inert) H18R/A26P/E35D/D46N/M47V/V68M/A71G/D90P (Fc fusion)
chain: B11 chain with R13T, H18R, A26P, D46N, L47V, A71G, D90P
notes: not shown: inert human IgG1 Fc

MFI at 33.3 nM [8]: 55400 MFI | MFI at 33.3 nM [9]: 13700 MFI
B14: variant CD80 IgV-Fc (inert) H18V/A26P/E35D/M47V/V68L/A71G (Fc fusion)
chain: B11 chain with R13T, H18V, A26P, L47V, M68L, A71G
notes: as for B13

MFI at 33.3 nM [5]: 19000 MFI
B15: CD80 IgV-Fc V22D/E24D/E35D/M47L/V68M/L85M/D90G (Fc fusion, not shown: a dimerising Fc or GST)
chain: B11 chain with R13T, V22D, E24D, L85M, D90G
